Reference: patent publication US10654925B2, “Anti-marinobufagenin antibodies and uses thereof” (priority 2018, dated 2020)

Assays:
[1] = Competitive ELISA, relative CTS specificity, RBG as competitor; format: binding; settings: competition with immobilized MBG-BSA; normalized to MBG = 100%
Procedure: (§1) The specificity (relative affinity) of anti-MBG antibodies for MBG relative to various cardiotonic steroids (CTSs) was determined in a competitive ELISA. Each anti-MBG antibody was tested for its binding to immobilized MBG in the presence of free MBG, resibufogenin (RBG), cinobufagin (CINO), ouabain (OUB) or digoxin (DIG) as a competitor. A constant amount of an anti-MBG antibody (typically 1-5 μg/mL) and varying concentrations of each CTS (from 10^−12M to 10^−5M) were pre-incubated before being added to the MBG-BSA-coated wells. After washing of the wells, an anti-human Fc, HRP-conjugated secondary antibody (at 1:5000 dilution) was added to the wells and incubated at 37° C. for 1 hr. After washing of the wells, an appropriate HRP reagent (e.g., TMB ultra, Thermo Fisher) was added to the wells. OD at 450 nm was measured by a microplate reader. MBG at 10 μM was assumed to be 100% competed, and MBG at 1 pM was assumed to be 0% competed. The data was plotted as a titration of antibody-antigen binding relative to free CTS concentration in the competition reaction to determine the free CTS concentration (μM) giving 50% maximal binding of antibody to immobilized MBG. The relative specificity of an antibody for a CTS was normalized to MBG=100%.

[2] = Competitive ELISA, free CTS competitors overall (summary and footnote); format: binding; settings: competitors RBG, CINO, OUB, DIG; Table 2
Procedure: as §1

[3] = Competitive ELISA, relative CTS specificity, DIG as competitor; format: binding; settings: competition with immobilized MBG-BSA; normalized to MBG = 100%
Procedure: as §1

[4] = system: pregnant Sprague-Dawley rats; test: DOCA/saline rat model of pre-eclampsia; format: in vivo; settings: antibodies 2.2 mg/kg/d i.p. days 16-18 in PDS rats
Procedure: Female Sprague-Dawley rats (200-250 g, Charles River Laboratories) were acclimatized for 1 week, and mated with male Sprague-Dawley rats (275-300 g). Pregnancy was confirmed by the presence of vaginal plugs or by examination of vaginal smears. Each rat was housed separately.
Five groups of rats were studied (n=10 per group): Group 1 (NP): normal pregnant rats; Group 2 (PDS): pregnant rats injected i.p. initially with 12.5 mg of DOCA in a depot form, followed by a weekly i.p. injection of 6.5 mg of DOCA, and whose drinking water is replaced with 0.9% saline; Group 3 (NPM): Normal pregnant rats given daily injections of MBG (7.65 μg per kg body weight per day) once pregnancy was established on day four of the experiment; Group 4 (PDS-3E9): rats administered DOCA and saline as for Group 2, and also given the murine anti-MBG antibody 3E9 (2.2 mg per kg body weight per day) on days 16, 17, and 18 of pregnancy; and Group 5 (PDS-H3L2): rats administered DOCA and saline as for Group 2, and also given the humanized anti-MBG antibody H3L2 (2.2 mg per kg body weight per day) on days 16, 17, and 18 of pregnancy.
Systolic blood pressure (BP) was measured by tail cuff at days 17-19. At least 3 readings are taken after BP has stabilized, and the mean of these values was calculated. The reported BP values are the mean of the daily measurements. At 18-20 days of pregnancy, 24-hour urine was collected in the absence of food to avoid contamination of the measurement of the protein amount in urine by any fallen food particles. Each rat was housed separately in a metabolic cage during this portion of the study. The 24-hour protein excretion was measured and was normalized to creatinine. The rats were sacrificed after the last measurement on days 18-20, and blood samples were taken. The number of fetal pups was counted and examined. The mean number of pups and any developmental or histological abnormalities in the pups were assessed. Statistical analysis was performed using analysis of variance and Tukey's post hoc test. A p value ≤0.05 was considered statistically significant.

[5] = Direct ELISA antigen binding of humanized anti-MBG; settings: 2 μg/ml MBG-conjugated BSA coated; OD 450 nm; among the 6 humanized antibodies; FIG. 1a, 1b
Procedure: The antigen binding of humanized anti-MGB was assayed in a direct Elisa assay. 2 μg/ml of MBG-conjugated BSA was coated in the Elisa plate. After blocking with 1% BSA, 2-fold dilution series of humanized anti-MBG was added to the plate. After washing, the bound antibody was detected by adding anti-human Fc HRP conjugate, and quantified by adding the TMB substrate. OD absorption at 450 nm was measured in a microplate reader.

[6] = Competitive ELISA, relative CTS specificity, OUB as competitor; format: binding; settings: competition with immobilized MBG-BSA; normalized to MBG = 100%
Procedure: as §1

[7] = system: PKC-δ in the nucleus of primary rat cardiac fibroblasts; test: Inhibition of MBG-induced PKC-δ nuclear translocation (Western blot); settings: MBG 10 nM; FIG. 2b
Procedure: MBG was incubated with an anti-MBG antibody prior to addition to cultured primary rat cardiac fibroblasts. Nuclei were isolated 30 min later and analyzed for amount of PKC-6.

[8] = system: pregnant Sprague-Dawley rats; test: DOCA/saline rat model of pre-eclampsia; format: in vivo; settings: tail cuff; baseline; antibodies 2.2 mg/kg/d i.p. days 16-18 in PDS (DOCA/saline) rats; MBG 7.65 μg/kg/d in normal pregnant rats (NPM); N = 10
[9] = ELISA avidity estimate on MBG-KLH; format: binding; settings: wells coated with 2 μg/ml MBG-KLH; IgG
Procedure: The avidity of anti-MBG antibodies for MBG was estimated in an ELISA. Wells of a microtiter plate were coated with 2 μg/ml of either MBG-bovine serum albumin (BSA) or MBG-keyhole limpet hemocyanin (KLH). The wells were then blocked with 1% BSA. A test IgG antibody at varying concentrations (typically from about 0.0001 nM to about 25 nM) was added to the wells. The test IgG bound to immobilized MBG was detected with an anti-human Fc, horseradish peroxidase (HRP)-conjugated secondary antibody (Jackson ImmunoResearch). After washing of the wells, an appropriate HRP reagent (e.g., TMB ultra, Thermo Fisher) was added to the wells. Optical density (OD) at 450 nm was measured by a microplate reader. The concentration of test antibody at the midpoint of the binding curve is an estimate of avidity for MBG.

[10] = Competitive ELISA, relative CTS specificity, free MBG as competitor; format: binding; settings: competition with immobilized MBG-BSA; normalized to MBG = 100%
Procedure: as §1

B1: H3L2: humanized anti-MBG antibody, VH H3 (SEQ ID NO: 11) with VL L2 (SEQ ID NO: 13) (antibody, V domains shown)
VH: EVQLQESGPGLVKPSETLSLTCTVSGDSITSGYWNWIRQPPGKGLEYMGYISYSGTTYYNPSLKSRITISRDTSKNQYSLKLSSVTAADTAVYYCARARYGYGFDYWGQGTLVTVSS
VL: DVVMTQSPLSLPVTLGQPASISCRSSQSIVHSNRNTYLEWYQQRPGQSPRLLIYKVSNRFSGVPDRFSGSGSGTDFTLKISRVEAEDVGVYYCFQGSHVPLTFGGGTKVEIK
modifications: Humanized VH sequence; Humanized VL sequence
Rel. CTS Specificity as % of MBG Binding: RBG [1]: 0%
reaction with CTS competitor molecules [2]: did not react with any of the CTS competitor molecules
Rel. CTS Specificity as % of MBG Binding: DIG [3]: 0%
% Malformed Pups ([4]; MBG 7.65 μg/kg/d in NPM rats): 0%
No. Pups ([4]; MBG 7.65 μg/kg/d in NPM rats): 12.9 ± 3.2
Urine Protein ([4]; normalized to creatinine, 18-20 days of pregnancy, MBG 7.65 μg/kg/d in NPM rats): 3.5 ± 0.7 mg/24 h
Blood Pressure-Final ([4]; tail cuff, 17-19 d of gestation, MBG 7.65 μg/kg/d in normal pregnant rats (NPM), N = 10): 109.4 ± 11 mm Hg
binding affinity in direct ELISA [5]: highest binding affinity
Rel. CTS Specificity as % of MBG Binding: OUB [6]: 0%
PKC-δ translocation into the nucleus, MBG plus antibody [7]: reduced
Blood Pressure-Initial [8]: 104 ± 5 mm Hg
Estimated avidity (KA) (antibody concentration at 50% maximal binding to antigen, or EC50), Antigen 2 (MBG-KLH) [9]: 1.5 nM
Rel. CTS Specificity as % of MBG Binding: MBG [10]: 100%
